According to article PMC2923778 (Journal of Molecular Biology, 2010):

T1: mSPSB2(12–224) (murine, UniProt O88838 12-224)
T1 construct: murine SPSB2 (SSB-2), residues 12-224: lacks the first 11 residues and the C-terminal SOCS box; Uniformly 15N-labelled in one NMR experiment; also called mSPSB2ΔSB; 15N-mSPSB2(12–224); source: E. coli Origami B(DE3) pLysS, GST fusion, purified (glutathione-Sepharose, thrombin cleavage, gel filtration)
T1 sequence (looked up): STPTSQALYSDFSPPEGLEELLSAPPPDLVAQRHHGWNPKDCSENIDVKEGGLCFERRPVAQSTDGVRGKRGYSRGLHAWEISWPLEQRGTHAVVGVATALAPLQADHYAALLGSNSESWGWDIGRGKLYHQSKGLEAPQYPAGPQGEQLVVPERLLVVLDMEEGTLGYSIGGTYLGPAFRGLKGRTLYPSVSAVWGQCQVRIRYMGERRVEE

T2: Par-4 (Homo sapiens, UniProt Q96IZ0)
T2 chain: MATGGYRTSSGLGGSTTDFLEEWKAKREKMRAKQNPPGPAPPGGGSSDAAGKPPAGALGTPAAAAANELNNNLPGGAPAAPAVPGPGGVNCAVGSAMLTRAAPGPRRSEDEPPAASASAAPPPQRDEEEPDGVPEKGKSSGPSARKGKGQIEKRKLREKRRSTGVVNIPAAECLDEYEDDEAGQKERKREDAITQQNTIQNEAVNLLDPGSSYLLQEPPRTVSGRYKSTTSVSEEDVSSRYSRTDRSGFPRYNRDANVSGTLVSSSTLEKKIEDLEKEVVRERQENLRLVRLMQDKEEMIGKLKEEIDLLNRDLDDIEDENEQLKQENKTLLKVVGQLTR

T3: hSPSB1(24–233) (human, UniProt Q96BD6 24-233)
T3 construct: human SPSB1 lacking the SOCS box region, residues 24-233; also called human SPSB1 SPRY domain; source: E. coli BL21(DE3)-R3-pRARE2, purified (Ni-Sepharose, TEV cleavage, size-exclusion, anion exchange); not shown: His6, N-terminal, cleaved
T3 sequence (looked up): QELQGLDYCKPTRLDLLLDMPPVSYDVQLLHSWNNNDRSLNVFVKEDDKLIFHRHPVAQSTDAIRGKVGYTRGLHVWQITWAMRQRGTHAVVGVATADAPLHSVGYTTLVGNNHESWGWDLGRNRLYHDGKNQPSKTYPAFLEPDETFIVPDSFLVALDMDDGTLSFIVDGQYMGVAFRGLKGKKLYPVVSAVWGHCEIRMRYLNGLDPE

T4: hSPSB2(26–219) (human, UniProt Q99619 26-219)
T4 construct: human SPSB2 lacking the SOCS box region, residues 26-219; also called human SPSB2 SPRY domain; source: E. coli BL21(DE3)-R3-pRARE2, purified (Ni-Sepharose, size-exclusion); not shown: His6, N-terminal, kept
T4 sequence (looked up): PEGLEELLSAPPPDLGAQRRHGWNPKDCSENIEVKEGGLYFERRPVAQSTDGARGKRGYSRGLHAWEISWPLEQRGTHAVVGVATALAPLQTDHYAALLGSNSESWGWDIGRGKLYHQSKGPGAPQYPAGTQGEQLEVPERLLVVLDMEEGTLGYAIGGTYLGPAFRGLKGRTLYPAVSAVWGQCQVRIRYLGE

B1: hPar-4(64–77) (peptide)
peptide: AAANELNNNLPGGA
notes: human prostate apoptosis response protein-4 (hPar-4), residues 64-77; also called shorter wild-type hPar-4 peptide; source: synthetic peptide (GenScript Corporation)
B2: [L69I]hPar-4(64–77) (peptide)
peptide: AAANEINNNLPGGA
notes: human prostate apoptosis response protein-4 (hPar-4), residues 64-77, L69I
B3: [E68D]hPar-4(64–77) (peptide)
peptide: AAANDLNNNLPGGA
notes: human prostate apoptosis response protein-4 (hPar-4), residues 64-77, E68D
B4: [E68D,L69I]hPar-4(64–77) (peptide)
peptide: AAANDINNNLPGGA
notes: human prostate apoptosis response protein-4 (hPar-4), residues 64-77, E68D and L69I (DINNN motif as in VASA); also called double mutant; source: synthetic peptide (GenScript Corporation)
B5: [N71A]hPar-4(64–77) (peptide)
peptide: AAANELNANLPGGA
notes: human prostate apoptosis response protein-4 (hPar-4), residues 64-77, N71A; source: synthetic peptide (GenScript Corporation)
B6: [N70A]hPar-4(64–77) (peptide)
peptide: AAANELANNLPGGA
notes: human prostate apoptosis response protein-4 (hPar-4), residues 64-77, N70A; source: synthetic peptide (GenScript Corporation)
B7: [A66D]hPar-4(59–77) (peptide)
peptide: GTPAAAADNELNNNLPGGA
notes: human prostate apoptosis response protein-4 (hPar-4), residues 59-77, A66D; source: synthetic peptide (GL Biochem)
B8: SPSB2 (protein)
chain: MGQTALAGGSSSTPTPQALYPDLSCPEGLEELLSAPPPDLGAQRRHGWNPKDCSENIEVKEGGLYFERRPVAQSTDGARGKRGYSRGLHAWEISWPLEQRGTHAVVGVATALAPLQTDHYAALLGSNSESWGWDIGRGKLYHQSKGPGAPQYPAGTQGEQLEVPERLLVVLDMEEGTLGYAIGGTYLGPAFRGLKGRTLYPAVSAVWGQCQVRIRYLGERRAEPHSLLHLSRLCVRHNLGDTRLGQVSALPLPPAMKRYLLYQ
B9: hPar-4(67–81) (peptide)
peptide: NELNNNLPGGAPAAP
notes: human prostate apoptosis response protein-4 (hPar-4), residues 67-81; source: synthetic peptide (ThermoElectron GmbH)
B10: VASA(184–203) (peptide)
peptide: DINNNNNIVEDVERKREFYI
notes: DEAD-box RNA helicase VASA of Drosophila, residues 184-203; also called VASA-derived peptide; source: synthetic peptide (ThermoElectron GmbH)

Legend:
mSPSB1ΔSB (murine) = test: ITC; 100 μM peptide titrated into 10 μM mSPSB protein; 22 °C; 20 mM Tris, 150 mM sodium chloride, 2.5 mM calcium chloride, pH 8.0; single binding site model
mSPSB4ΔSB (murine) = test: as above
mSPSB2(12–224) [1] = molecular target: T1, mSPSB2(12–224); test: as above; details: both partners purified
mSPSB2(12–224) [2] = molecular target: T1, mSPSB2(12–224); test: as above; details: both partners purified; remark: listed apart in the source
Par-4 = molecular target: T2, Par-4; test: ITC
hSPSB1(24–233) = molecular target: T3, hSPSB1(24–233); test: ITC; 100 μM peptide titrated into 10 μM hSPSB protein; 20 °C; 50 mM Hepes pH 7.4, 150 mM NaCl, 1 mM DTT (hSPSB1) or 0.5 mM TCEP (hSPSB2, hSPSB4); single binding site model; details: both partners purified
hSPSB2(26–219) = molecular target: T4, hSPSB2(26–219); test: as above; details: both partners purified

Binder | Kd (mSPSB1ΔSB (murine)) | Kd (mSPSB4ΔSB (murine)) | Kd (mSPSB2(12–224) [2]) | other results
B1 | 210 nM | 213 nM | 3200 nM | Kd (mSPSB2(12–224) [1]): 3100 nM
B2 |  | 55 nM | 1600 nM | 
B3 |  | 47 nM | 208 nM | 
B4 | 40 nM | 33 nM | 106 nM | 
B5 | > 50000 nM | > 50000 nM |  | 
B6 | > 50000 nM | > 50000 nM |  | 
B7 |  | 255 nM | 4000 nM | 
B8 |  |  |  | Kd (Par-4): 1500 nM
B9 |  |  |  | Kd (hSPSB1(24–233)): 150 nM; dH (hSPSB1(24–233)): -13.2 ± 0.1 kcal/mol; stoichiometry N (hSPSB1(24–233)): 0.94; Kd (hSPSB2(26–219)): 1520 nM; dH (hSPSB2(26–219)): -16.2 ± 0.1 kcal/mol; stoichiometry N (hSPSB2(26–219)): 1.18
B10 |  |  |  | dH (hSPSB1(24–233)): -20.5 ± 0.2 kcal/mol; stoichiometry N (hSPSB1(24–233)): 0.96; Kd (hSPSB2(26–219)): 147 nM; dH (hSPSB2(26–219)): -23.9 ± 0.1 kcal/mol; stoichiometry N (hSPSB2(26–219)): 0.96
